Measurements from paper PMC10901769, “An anti-CRISPR that represses its own transcription while blocking Cas9-target DNA binding”.

Legend:
AcrIIA15 full-length [1] = target: T1, AcrIIA15 full-length (UniProt PDB:8JG9_3 1-171); test: SEC; no stable binding; Promoter EMSA: 20 mM Tris-HCl pH 7.5, 300 mM NaCl, on ice/4 C, 30 min; SaCas9 EMSA: 20 mM Tris pH 7.5, 200 mM NaCl, 10 mM EDTA, RT; SPR: 10 mM Na2HPO4, 2 mM KH2PO4, 0.3 M NaCl; SEC: 20 mM Tris pH 7.5, 300 mM NaCl; conditions: protein: recombinant; tags: C-terminal His6, or His6-Sumo removed by Ulp1; chain copies: 2; blunt
T1 sequence: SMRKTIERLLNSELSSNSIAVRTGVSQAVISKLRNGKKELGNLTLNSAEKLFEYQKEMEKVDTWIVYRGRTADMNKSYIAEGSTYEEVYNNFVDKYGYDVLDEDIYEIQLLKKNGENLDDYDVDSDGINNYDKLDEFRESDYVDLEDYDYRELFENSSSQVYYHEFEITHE

AcrIIA15 CTD = target: T2, AcrIIA15 CTD (UniProt PDB:8JFT_3 1-114); test: EMSA; Promoter EMSA: 20 mM Tris-HCl pH 7.5, 300 mM NaCl, on ice/4 C, 30 min; SaCas9 EMSA: 20 mM Tris pH 7.5, 200 mM NaCl, 10 mM EDTA, RT; SPR: 10 mM Na2HPO4, 2 mM KH2PO4, 0.3 M NaCl; SEC: 20 mM Tris pH 7.5, 300 mM NaCl; conditions: protein: recombinant; tags: C-His6 or His6-Sumo (removed); blunt
T2 sequence: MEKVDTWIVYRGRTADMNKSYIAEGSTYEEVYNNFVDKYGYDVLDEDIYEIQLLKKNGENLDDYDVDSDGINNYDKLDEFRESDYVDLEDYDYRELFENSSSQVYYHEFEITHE

AcrIIA15 NTD = target: T3, AcrIIA15 NTD (UniProt PDB:8JFR_1 1-63); test: as above; conditions: protein: recombinant; tags: C-His6 or His6-Sumo (removed); chain copies: 2; blunt
T3 sequence: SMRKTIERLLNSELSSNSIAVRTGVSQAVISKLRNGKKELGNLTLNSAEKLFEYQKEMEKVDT

AcrIIA15 full-length [2] = target: T1, AcrIIA15 full-length; test: as above; conditions: protein: recombinant; tags: C-terminal His6, or His6-Sumo removed by Ulp1; chain copies: 2; blunt
[3] = target: T4, SaCas9;AcrIIA15 full-length (Staphylococcus aureus;, UniProt J7RUA5;PDB:8JG9_3 1-1053;1-171, |); test: cryo-EM; with IR1 DNA; Promoter EMSA: 20 mM Tris-HCl pH 7.5, 300 mM NaCl, on ice/4 C, 30 min; SaCas9 EMSA: 20 mM Tris pH 7.5, 200 mM NaCl, 10 mM EDTA, RT; SPR: 10 mM Na2HPO4, 2 mM KH2PO4, 0.3 M NaCl; SEC: 20 mM Tris pH 7.5, 300 mM NaCl; conditions: protein: recombinant;recombinant; tags: His6-Sumo removed by Ulp1;C-terminal His6, or His6-Sumo removed by Ulp1; chain copies: 2;2; hairpin
T4 sequence 1: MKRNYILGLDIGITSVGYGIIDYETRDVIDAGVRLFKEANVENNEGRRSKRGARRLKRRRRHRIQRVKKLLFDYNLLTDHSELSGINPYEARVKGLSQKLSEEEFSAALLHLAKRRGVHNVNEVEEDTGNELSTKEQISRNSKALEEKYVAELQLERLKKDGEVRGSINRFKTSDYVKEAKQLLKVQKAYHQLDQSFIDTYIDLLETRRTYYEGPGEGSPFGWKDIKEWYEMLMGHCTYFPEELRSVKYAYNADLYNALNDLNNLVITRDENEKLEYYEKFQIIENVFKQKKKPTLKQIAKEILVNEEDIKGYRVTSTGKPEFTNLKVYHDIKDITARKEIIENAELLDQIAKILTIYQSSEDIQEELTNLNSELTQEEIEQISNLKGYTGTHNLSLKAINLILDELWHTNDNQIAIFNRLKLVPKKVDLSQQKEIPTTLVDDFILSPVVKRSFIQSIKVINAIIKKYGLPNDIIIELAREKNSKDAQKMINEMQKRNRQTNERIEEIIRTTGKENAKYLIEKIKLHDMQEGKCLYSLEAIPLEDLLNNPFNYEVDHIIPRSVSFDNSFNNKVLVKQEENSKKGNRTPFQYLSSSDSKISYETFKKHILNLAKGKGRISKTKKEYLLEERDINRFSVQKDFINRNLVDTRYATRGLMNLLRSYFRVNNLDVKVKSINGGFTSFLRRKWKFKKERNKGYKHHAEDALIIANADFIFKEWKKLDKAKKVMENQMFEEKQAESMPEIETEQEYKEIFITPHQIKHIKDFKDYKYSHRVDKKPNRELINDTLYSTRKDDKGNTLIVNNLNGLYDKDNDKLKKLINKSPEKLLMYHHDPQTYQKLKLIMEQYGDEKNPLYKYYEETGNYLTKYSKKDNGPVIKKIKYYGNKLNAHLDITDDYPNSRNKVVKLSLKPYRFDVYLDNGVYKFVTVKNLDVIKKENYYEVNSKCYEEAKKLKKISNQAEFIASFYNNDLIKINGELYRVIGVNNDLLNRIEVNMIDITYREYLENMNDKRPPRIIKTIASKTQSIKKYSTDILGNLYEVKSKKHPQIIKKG
T4 sequence 2: T1 sequence

SaCas9;AcrIIA15 CTD = target: T5, SaCas9;AcrIIA15 CTD (Staphylococcus aureus;, UniProt J7RUA5;PDB:8JFT_3 1-1053;1-114, |); test: cryo-EM; Promoter EMSA: 20 mM Tris-HCl pH 7.5, 300 mM NaCl, on ice/4 C, 30 min; SaCas9 EMSA: 20 mM Tris pH 7.5, 200 mM NaCl, 10 mM EDTA, RT; SPR: 10 mM Na2HPO4, 2 mM KH2PO4, 0.3 M NaCl; SEC: 20 mM Tris pH 7.5, 300 mM NaCl; conditions: protein: recombinant;recombinant; tags: His6-Sumo removed by Ulp1;C-His6 or His6-Sumo (removed); copies: 1;1; hairpin
T5 sequence 1: T4 sequence 1
T5 sequence 2: T2 sequence

B1: IR1' (dsDNA)
DNA 1: TTATGACAAATGTCATAG
DNA 2: CTATGACATTTGTCATAA
B1: no binding (AcrIIA15 full-length [1]).

B2: IR1-IR2 (dsDNA)
DNA 1: ATAATTATGACAAATGTCATAGAAAAGCGTTGACTTATGACGAACGTCATAATATA
DNA 2: TATATTATGACGTTCGTCATAAGTCAACGCTTTTCTATGACATTTGTCATAATTAT
B2: no binding (AcrIIA15 CTD); binds (AcrIIA15 NTD); binds (AcrIIA15 full-length [2]).

B3: SaCas9 sgRNA (structured_RNA)
RNA: GGUCUGCUAUUUCUAUUUACGUUUUAGUACUCUGGAAACAGAAUCUACUAAAACAAGGCAAAAUGCCGUGUUUAUCUCGUCAACUUGUUGGCGAGAUC
B3: binds [3]; binds (SaCas9;AcrIIA15 CTD).
